Assay [1] deals with T1, human PSMA-Fc (human, UniProt Q04609 44-750).
T1 construct: also called Human PSMA-Fc fusion
Description: Octet. (In general: In BLI a coated tip is dipped into the sample, and binding shifts an interference pattern.)

Assay [2] concerns the target T1, human PSMA-Fc. Put plainly: Octet. The source holds these as a separate data set.
For assay [3], the target named is T2, human PSMA (human, UniProt Q04609 44-750, limits assumed).
T2 construct: also called huPSMA; hPSMA
Description: Octet.

Assay [4] concerns the target T3, cynomolgus monkey PSMA (cynomolgus monkey, UniProt A0A2K5VNZ0 44-750).
T3 construct: also called cyPSMA; cyno PSMA
Put plainly: Octet.

In assay [5] the target is T4, human CD3 epsilon (human, UniProt P07766 23-126, limits assumed).
T4 construct: also called huCD3e
Put plainly: Octet.

The target of assay [6] is T5, cynomolgus monkey CD3 epsilon (cynomolgus monkey, UniProt Q95LI5 22-117, limits assumed).
T5 construct: also called cyCD3e; cyno CD3
T5 sequence (looked up): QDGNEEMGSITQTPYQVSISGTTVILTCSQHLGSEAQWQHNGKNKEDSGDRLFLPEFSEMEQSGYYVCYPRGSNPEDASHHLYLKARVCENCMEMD
Description: Octet.

Assay [7] has as its target T1, human PSMA-Fc. Put plainly: Octet, PSMA-Fc. Here is the method:
Binding affinity of select PSMA PTE variants was tested by Octet.

The target of assay [8] is T6, human PSMA on PSMA-transfected CHO cells (human, UniProt Q04609 1-750).
T6 construct: whole, on cells; also called Hu PSMA CHO
Description: cell binding, labeled secondary antibody. Here is the method:
(§1) Surface binding was detected with a labeled secondary antibody specific for the anti-CD3 scFv.
(§2) The binding affinities to both human and cyno PSMA and human and cyno CD3 epsilon were determined.

The target of assay [9] is T7, cyno PSMA on PSMA-transfected CHO cells (cynomolgus monkey, UniProt A0A2K5VNZ0 1-750).
T7 construct: whole, on cells; also called Cyno PSMA CHO
Description: cell binding, labeled secondary antibody. The procedure:
as §1, §2

In assay [10] the target is T2, human PSMA. Description: Biacore.
Assay [11] addresses T3, cynomolgus monkey PSMA. Put plainly: Biacore. In general terms: Surface plasmon resonance follows binding to a sensor surface in real time, without labels.
For assay [12], the target named is T4, human CD3 epsilon. Put plainly: Biacore.
Assay [13] deals with T5, cynomolgus monkey CD3 epsilon. Put plainly: Biacore.
Assay [14] has as its target T2, human PSMA. Put plainly: BLI or SPR.
The target of assay [15] is T3, cynomolgus monkey PSMA. Put plainly: BLI or SPR.
The target in assay [16] is T4, human CD3 epsilon. Description: BLI or SPR.
Assay [17] addresses T5, cynomolgus monkey CD3 epsilon. Put plainly: BLI or SPR.
Assay [18] addresses PSMA on LNCaP cells (human, UniProt Q04609 1-750). Description: cell-based or functional assay.
In assay [19] the target is PSMA on 22Rv1 cells (human, UniProt Q04609 1-750). Put plainly: cell-based or functional assay.
Sequence of PSMA on 22Rv1 cells (Q04609 whole entry): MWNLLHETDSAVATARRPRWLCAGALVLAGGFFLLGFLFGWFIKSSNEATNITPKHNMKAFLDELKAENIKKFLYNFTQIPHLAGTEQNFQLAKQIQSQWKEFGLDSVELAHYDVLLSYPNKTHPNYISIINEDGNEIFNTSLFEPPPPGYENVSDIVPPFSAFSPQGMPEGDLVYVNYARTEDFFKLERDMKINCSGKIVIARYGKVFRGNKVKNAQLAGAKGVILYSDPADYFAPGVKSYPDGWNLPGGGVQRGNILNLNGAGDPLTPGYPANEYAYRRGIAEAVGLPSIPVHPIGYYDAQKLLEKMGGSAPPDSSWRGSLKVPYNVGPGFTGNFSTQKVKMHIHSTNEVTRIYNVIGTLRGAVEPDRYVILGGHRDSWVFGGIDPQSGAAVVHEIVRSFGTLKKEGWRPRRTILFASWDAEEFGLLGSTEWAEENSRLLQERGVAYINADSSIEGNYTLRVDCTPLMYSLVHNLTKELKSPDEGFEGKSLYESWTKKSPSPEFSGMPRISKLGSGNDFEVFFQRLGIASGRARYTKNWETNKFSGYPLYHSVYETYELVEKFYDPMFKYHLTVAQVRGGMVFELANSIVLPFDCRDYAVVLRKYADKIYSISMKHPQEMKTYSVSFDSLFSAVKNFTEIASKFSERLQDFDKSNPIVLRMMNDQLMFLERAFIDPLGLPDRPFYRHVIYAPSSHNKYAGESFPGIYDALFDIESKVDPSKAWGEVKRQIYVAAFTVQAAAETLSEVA

T1 sequence (Q04609 44-750 limits assumed): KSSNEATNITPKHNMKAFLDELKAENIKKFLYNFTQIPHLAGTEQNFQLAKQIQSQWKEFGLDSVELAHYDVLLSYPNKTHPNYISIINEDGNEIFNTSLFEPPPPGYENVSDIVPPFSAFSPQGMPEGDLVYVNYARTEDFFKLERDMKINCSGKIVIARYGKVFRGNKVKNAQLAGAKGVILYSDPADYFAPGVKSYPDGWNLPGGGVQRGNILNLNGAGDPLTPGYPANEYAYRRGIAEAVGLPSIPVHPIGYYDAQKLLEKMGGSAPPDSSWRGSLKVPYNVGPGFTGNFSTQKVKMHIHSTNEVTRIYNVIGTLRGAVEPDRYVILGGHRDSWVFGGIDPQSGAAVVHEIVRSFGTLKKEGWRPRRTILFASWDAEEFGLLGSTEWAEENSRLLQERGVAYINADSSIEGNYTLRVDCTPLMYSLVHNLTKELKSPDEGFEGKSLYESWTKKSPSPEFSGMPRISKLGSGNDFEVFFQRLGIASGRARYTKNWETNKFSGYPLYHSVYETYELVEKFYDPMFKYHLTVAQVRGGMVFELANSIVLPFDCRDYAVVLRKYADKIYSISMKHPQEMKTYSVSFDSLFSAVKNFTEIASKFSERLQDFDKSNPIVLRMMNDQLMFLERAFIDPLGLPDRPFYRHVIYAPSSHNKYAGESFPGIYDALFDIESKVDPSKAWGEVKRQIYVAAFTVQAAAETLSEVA
T2 sequence (Q04609 44-750 limits assumed): as above
Sequence of PSMA on LNCaP cells (Q04609 whole entry): as the sequence (Q04609 whole entry) above
T4 sequence (P07766 23-126 limits assumed): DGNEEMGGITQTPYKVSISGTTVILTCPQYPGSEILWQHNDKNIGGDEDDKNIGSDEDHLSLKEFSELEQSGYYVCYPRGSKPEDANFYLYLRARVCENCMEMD
T6 sequence (Q04609 whole entry): as the sequence (Q04609 whole entry) above

B1: uTCE of AC3092 (bispecific antibody)
chain: QVQLVESGGGVVQPGRSLRLSCAASGRTFGIYVMGWVRQAPGKEREFVAAISWSGSNRLVSDSVKGRFTISRDNSKNTLYLQMNSLRAEDTAVYYCAASNRLYGRTWYDFNESDYWGQGTQVTVSSGGGGSGGGSELVVTQEPSLTVSPGGTVTLTCRSSNGAVTSSNYANWVQQKPGQAPRGLIGGTNKRAPGTPARFSGSLLGGKAALTLSGVQPEDEAVYYCALWYPNLWVFGGGTKLTVLGATPPETGAETESPGETTGGSAESEPPGEGEVQLLESGGGIVQPGGSLKLSCAASGFTFNTYAMNWVRQAPGKGLEWVARIRSKYNNYATYYADSVKDRFTISRDDSKNTVYLQMNNLKTEDTAVYYCVRHENFGNSYVSWFAHWGQGTLVTVSS
notes: also called AMX-500-P1; PSMA.5-CD3.23
As for B1, the Kd (in general, the constant that tells how readily two partners part at equilibrium) in [1] is 3.9 nM; in assay [2], 3.9 nM; in assay [3] it was 4.5 nM; in assay [4], 41.1 nM; in [5], 71.9 nM; in assay [6] it was 64.6 nM. Also, binding in assay [7] was put at a Kd of 3.9 nM. The koff – broadly, the rate constant with which the complex falls apart – in assay [2] worked out at 0.00027 s⁻¹; in assay [7] it was 0.000273 s⁻¹. Moreover, the on-rate (kon) (in general, the second-order rate constant of association) in assay [2] was determined as 72000 M⁻¹ s⁻¹; in assay [7] it was 72500 M⁻¹ s⁻¹. Further, the EC50 (commonly the concentration that produces a half-maximal response) in assay [8] came out at 9.06 nM; in assay [9] it was 28.8 nM.

B2: AMX-500(uTCE) (bispecific antibody)
chain: QVQLVESGGGVVQPGRSLRLSCAASGRTFGIYVWGWFRQAPGKEREFVGAMSWSGSNRKVSDSVKGRFTISRDNSKNTLYLQMNSLRAEDTAVYYCAASNKEYGRTWYDFNESDYWGQGTQVTVSSGGGGSGGGSELVVTQEPSLTVSPGGTVTLTCRSSNGAVTSSNYANWVQQKPGQAPRGLIGGTNKRAPGTPARFSGSLLGGKAALTLSGVQPEDEAVYYCALWYPNLWVFGGGTKLTVLSESATPESGPGTSPGATPESGPGTSESATPEVQLVESGGGIVQPGGSLRLSCAASGFTFSTYAMNWVRQAPGKGLEWVGRIRTKRNNYATYYADSVKGRFTISRDDSKNTVYLQMNSLKTEDTAVYYCVRHENFGNSYVSWFAHWGQGTLVTVSS
notes: also called uTCE from AC3896; AMX-500-P4 uTCE
In the case of B2, the Kd is 12.1 nM in assay [3]; 201 nM in assay [4]; 33.2 nM in [5]; 38.8 nM in [6]; 11.7 nM in [10]; 230 nM in [11]. Also, the Kd in [12] turned out to be 12.8 nM; in [13] it was 13.7 nM; in [14], 44 nM; in assay [15], 410 nM; in [16], 28 nM; in assay [17] it was 26 nM. Further, the koff is 0.012 s⁻¹ in [14], 0.043 s⁻¹ in assay [15], 0.1 s⁻¹ in assay [16] and 0.1 s⁻¹ in [17]. The kon in [14] came out at 270000 M⁻¹ s⁻¹; in [15], 100000 M⁻¹ s⁻¹; in [16], 4e+06 M⁻¹ s⁻¹; in [17] it was 5e+06 M⁻¹ s⁻¹. For the same molecule, in assay [18], the “in vitro cytotoxicity IC50, LNCaP cells, donor 1” value stood at 0.024 nM. Moreover, the “in vitro cytotoxicity IC50, LNCaP cells, donor 2” value in assay [18] is 0.015 nM. Also, the “in vitro cytotoxicity IC50, LNCaP cells, donor 3” value in assay [18] was determined as 0.016 nM. Further, the “in vitro cytotoxicity IC50, LNCaP cells, donor 5” value in assay [18] was 0.032 nM. In [19], the “in vitro cytotoxicity IC50, 22Rv1 cells, donor 1” value is 0.691 nM. In addition, in [19], the “in vitro cytotoxicity IC50, 22Rv1 cells, donor 2” value was 1.34 nM. Also, the “in vitro cytotoxicity IC50, 22Rv1 cells, donor 3” value in assay [19] worked out at 1.3 nM. In [8], this molecule gave an EC50 of 17.4 nM.
